Measurements: patent publication US20210063414A1, “METHODS FOR PREVENTING AND/OR TREATING BONE LOSS CONDITIONS BY MODULATING IRISIN” (Dana-Farber Cancer Institute, Inc., priority 2018, published 2021)

Columns and labels:
Experiment in all cases: Crosslinking/co-immunoprecipitation/mass spectrometry (TMT quantitative proteomics) to identify irisin receptors
Type in all cases: binding
[1] = target: T1, MLO-Y4 cell surface proteins (Mus musculus, UniProt Q921G7); details: co-precipitated protein Etfdh (ETFD_MOUSE)
T1 construct: endogenous in cells; host or cells: MLO-Y4
T1 sequence (Q921G7 33-616): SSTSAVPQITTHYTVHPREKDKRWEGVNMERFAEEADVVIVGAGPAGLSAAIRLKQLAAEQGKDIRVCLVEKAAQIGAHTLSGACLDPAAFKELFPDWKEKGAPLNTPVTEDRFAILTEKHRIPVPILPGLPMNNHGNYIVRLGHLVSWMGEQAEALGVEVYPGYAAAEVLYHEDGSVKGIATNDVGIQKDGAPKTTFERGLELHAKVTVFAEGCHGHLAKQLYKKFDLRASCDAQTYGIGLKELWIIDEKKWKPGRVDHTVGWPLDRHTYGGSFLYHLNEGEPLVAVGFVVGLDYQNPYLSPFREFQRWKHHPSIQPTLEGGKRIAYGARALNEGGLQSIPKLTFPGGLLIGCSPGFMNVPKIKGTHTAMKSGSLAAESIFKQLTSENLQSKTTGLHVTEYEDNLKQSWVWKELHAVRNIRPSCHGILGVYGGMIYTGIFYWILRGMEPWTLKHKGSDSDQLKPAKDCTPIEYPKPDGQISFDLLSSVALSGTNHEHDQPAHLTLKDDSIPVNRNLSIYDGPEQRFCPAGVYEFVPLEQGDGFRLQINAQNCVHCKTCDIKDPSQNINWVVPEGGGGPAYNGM
How it was run: (§1)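 Relative protein abundance came from 6-plex TMT MS3 quantitation on an Orbitrap Fusion Lumos, after in-gel trypsin digestion of Coomassie-stained SDS-PAGE lanes. Input was a Ni-NTA pulldown (250 mM imidazole elution) of lysates from murine MLO-Y4 cells. These cells were treated on ice with His-tagged irisin or adipsin (10 nM, 20 min) in serum-free medium, then crosslinked with 1.5 mM DTSSP for 30 min.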

[2] = target: T2, MLO-Y4 cell surface proteins (Mus musculus, UniProt P41216); details: co-precipitated protein Acsl1 (ACSL1_MOUSE)
T2 construct: endogenous in cells; host or cells: MLO-Y4
T2 sequence (P41216 1-699): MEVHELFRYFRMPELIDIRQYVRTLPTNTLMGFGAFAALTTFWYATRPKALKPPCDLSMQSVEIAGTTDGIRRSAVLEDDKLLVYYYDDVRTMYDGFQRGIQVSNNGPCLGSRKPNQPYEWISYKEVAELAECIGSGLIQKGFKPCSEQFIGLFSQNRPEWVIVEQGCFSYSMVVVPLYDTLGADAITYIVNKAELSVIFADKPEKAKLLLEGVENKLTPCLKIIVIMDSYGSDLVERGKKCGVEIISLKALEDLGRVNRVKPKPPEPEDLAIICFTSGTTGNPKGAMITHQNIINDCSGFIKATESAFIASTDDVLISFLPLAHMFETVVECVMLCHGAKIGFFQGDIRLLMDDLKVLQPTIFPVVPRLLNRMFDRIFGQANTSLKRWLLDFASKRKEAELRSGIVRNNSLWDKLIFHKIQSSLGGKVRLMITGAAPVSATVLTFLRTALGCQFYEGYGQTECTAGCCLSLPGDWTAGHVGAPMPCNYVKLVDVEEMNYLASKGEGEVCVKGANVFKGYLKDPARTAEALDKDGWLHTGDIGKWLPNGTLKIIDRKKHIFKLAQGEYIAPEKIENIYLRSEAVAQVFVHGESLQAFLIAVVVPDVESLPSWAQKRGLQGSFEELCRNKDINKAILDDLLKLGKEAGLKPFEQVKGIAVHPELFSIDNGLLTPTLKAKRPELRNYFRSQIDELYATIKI
How it was run: as §1

[3] = target: T3, MLO-Y4 cell surface proteins (Mus musculus, UniProt Q99KR7); details: co-precipitated protein Ppif (PPIF_MOUSE)
T3 construct: endogenous in cells; host or cells: MLO-Y4
T3 sequence (Q99KR7 30-206): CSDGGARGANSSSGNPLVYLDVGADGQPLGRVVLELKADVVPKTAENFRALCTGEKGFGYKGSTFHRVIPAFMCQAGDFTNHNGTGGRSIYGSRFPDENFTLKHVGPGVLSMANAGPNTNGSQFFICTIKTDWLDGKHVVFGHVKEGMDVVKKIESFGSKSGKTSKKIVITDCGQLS
How it was run: as §1

adipsin gave a TMT signal-to-noise ratio [1] of 57.6477, a TMT signal-to-noise ratio [2] of 361.33 and a TMT signal-to-noise ratio [3] of 249.839.
